Paper doi:10.64898/2025.12.08.692997 (bioRxiv, 2025)
Read-outs that look alike come from different tables or passages of the source. Values belong to the molecule of their own block, whether it stands above or below them.

Experiments:
[1] = target: Rat EphB1-Fc ectodomain (rat) (UniProt P09759); assay: AlphaScreen or HTRF
[2] = target: Rat EphB1-Fc ectodomain (rat) (UniProt P09759); assay: BLI
[3] = target: Mouse EphrinB2-His ectodomain (mouse) (UniProt P52800); assay: mass photometry
[4] = target: T1, Human EphB2-His ectodomain (human), P29323; assay: mass photometry; conditions: remark: other sources report otherwise
T1 chain: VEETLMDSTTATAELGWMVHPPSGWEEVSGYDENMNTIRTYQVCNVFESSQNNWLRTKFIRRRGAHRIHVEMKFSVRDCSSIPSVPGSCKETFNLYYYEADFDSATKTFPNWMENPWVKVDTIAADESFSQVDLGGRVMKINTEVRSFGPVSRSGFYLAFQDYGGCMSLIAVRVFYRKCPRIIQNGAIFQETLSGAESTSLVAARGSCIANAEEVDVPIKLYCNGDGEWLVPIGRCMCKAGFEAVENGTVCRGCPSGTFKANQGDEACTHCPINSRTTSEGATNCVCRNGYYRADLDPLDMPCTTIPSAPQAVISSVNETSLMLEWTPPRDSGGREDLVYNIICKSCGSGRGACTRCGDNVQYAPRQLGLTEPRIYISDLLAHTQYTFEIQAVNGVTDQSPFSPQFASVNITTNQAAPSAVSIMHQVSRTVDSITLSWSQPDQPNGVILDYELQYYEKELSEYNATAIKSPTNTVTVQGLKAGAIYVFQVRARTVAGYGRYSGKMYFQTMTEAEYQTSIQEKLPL

[5] = target: T2, Human EphB2-His ectodomain (human, UniProt P29323 19-543); assay: BLI
T2 sequence: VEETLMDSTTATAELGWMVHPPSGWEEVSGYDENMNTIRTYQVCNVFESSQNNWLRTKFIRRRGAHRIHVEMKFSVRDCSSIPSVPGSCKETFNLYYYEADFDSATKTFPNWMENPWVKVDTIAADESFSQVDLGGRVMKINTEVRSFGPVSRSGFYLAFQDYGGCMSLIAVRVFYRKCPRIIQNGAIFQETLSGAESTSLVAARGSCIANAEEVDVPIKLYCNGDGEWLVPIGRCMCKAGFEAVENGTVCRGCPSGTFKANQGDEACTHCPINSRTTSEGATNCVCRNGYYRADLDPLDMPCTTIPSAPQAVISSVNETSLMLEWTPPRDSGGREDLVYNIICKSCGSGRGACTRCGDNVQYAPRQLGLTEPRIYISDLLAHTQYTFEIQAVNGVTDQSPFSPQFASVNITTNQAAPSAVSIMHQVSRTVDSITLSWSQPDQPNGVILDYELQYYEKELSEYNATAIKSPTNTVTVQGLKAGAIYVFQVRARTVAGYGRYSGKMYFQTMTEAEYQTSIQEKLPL

[6] = target: T3, Human EphB4-His ectodomain (human, UniProt P54760 16-539); assay: BLI
T3 sequence: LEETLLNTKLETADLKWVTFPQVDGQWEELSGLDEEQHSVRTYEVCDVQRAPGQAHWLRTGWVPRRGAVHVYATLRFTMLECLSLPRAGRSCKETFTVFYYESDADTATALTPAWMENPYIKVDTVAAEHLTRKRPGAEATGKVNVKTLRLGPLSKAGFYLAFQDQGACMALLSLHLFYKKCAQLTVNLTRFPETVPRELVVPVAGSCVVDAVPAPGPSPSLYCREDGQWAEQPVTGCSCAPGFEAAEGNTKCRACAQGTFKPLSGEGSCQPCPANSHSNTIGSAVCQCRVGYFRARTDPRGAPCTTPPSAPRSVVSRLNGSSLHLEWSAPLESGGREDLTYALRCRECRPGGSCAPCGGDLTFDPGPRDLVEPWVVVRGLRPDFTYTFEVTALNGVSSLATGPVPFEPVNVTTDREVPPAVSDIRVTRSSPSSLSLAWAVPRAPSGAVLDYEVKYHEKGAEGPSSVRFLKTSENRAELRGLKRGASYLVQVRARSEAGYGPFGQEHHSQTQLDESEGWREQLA

[7] = target: T4, Human EphB1-His ectodomain (human, UniProt P54762 18-540); assay: BLI
T4 sequence: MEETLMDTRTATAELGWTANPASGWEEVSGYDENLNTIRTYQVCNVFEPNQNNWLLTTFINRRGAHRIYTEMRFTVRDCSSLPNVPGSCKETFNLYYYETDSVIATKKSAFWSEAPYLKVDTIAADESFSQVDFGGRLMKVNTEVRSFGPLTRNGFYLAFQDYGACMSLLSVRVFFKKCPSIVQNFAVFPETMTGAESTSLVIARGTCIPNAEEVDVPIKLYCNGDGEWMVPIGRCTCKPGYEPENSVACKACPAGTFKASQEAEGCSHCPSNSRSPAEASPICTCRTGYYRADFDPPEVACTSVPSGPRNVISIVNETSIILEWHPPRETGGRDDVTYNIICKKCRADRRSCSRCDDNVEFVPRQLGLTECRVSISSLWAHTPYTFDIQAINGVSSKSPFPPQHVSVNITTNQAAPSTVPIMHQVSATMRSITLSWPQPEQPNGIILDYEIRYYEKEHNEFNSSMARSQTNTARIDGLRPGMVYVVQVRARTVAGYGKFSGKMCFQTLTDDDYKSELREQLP

[8] = target: T2, Human EphB2-His ectodomain; assay: BLI; remark: listed apart in the source

Molecule: Mouse EphrinB2-His ectodomain (from UniProt P52800 29-232) (domain or fragment)
KD1 (2:1 heterologous interaction model) [2]: < 1 pM
KD2 (dimer formation, 2:1 model) [2]: 39.7 nM
stoichiometry N [3]: 2

B1: Human EphB2-His ectodomain, P29323 19-543 (domain or fragment)
chain: VEETLMDSTTATAELGWMVHPPSGWEEVSGYDENMNTIRTYQVCNVFESSQNNWLRTKFIRRRGAHRIHVEMKFSVRDCSSIPSVPGSCKETFNLYYYEADFDSATKTFPNWMENPWVKVDTIAADESFSQVDLGGRVMKINTEVRSFGPVSRSGFYLAFQDYGGCMSLIAVRVFYRKCPRIIQNGAIFQETLSGAESTSLVAARGSCIANAEEVDVPIKLYCNGDGEWLVPIGRCMCKAGFEAVENGTVCRGCPSGTFKANQGDEACTHCPINSRTTSEGATNCVCRNGYYRADLDPLDMPCTTIPSAPQAVISSVNETSLMLEWTPPRDSGGREDLVYNIICKSCGSGRGACTRCGDNVQYAPRQLGLTEPRIYISDLLAHTQYTFEIQAVNGVTDQSPFSPQFASVNITTNQAAPSAVSIMHQVSRTVDSITLSWSQPDQPNGVILDYELQYYEKELSEYNATAIKSPTNTVTVQGLKAGAIYVFQVRARTVAGYGRYSGKMYFQTMTEAEYQTSIQEKLPL
stoichiometry N [4]: 2

B2: Human EphrinB2-Fc ectodomain (Fc fusion)
chain: IVLEPIYWNSSNSKFLPGQGLVLYPQIGDKLDIICPKVDSKTVGQYEYYKVYMVDKDQADRCTIKKENTPLLNCAKPDQDIKFTIKFQEFSPNLWGLEFQKNKDYYIISTSNGSLEGLDNQEGGVCQTRAMKILMKVGQDASSAGSTRNKDPTRRPELEAGTNGRSSTTSPFVKPNPGSSTDGNSAGHSGNNILGSEVALFA
binding result [5]: binds
binding result [6]: binds
binding result [7]: binds

B3: Human EphrinB3-Fc ectodomain (Fc fusion)
chain: LSLEPVYWNSANKRFQAEGGYVLYPQIGDRLDLLCPRARPPGPHSSPNYEFYKLYLVGGAQGRRCEAPPAPNLLLTCDRPDLDLRFTIKFQEYSPNLWGHEFRSHHDYYIIATSDGTREGLESLQGGVCLTRGMKVLLRVGQSPRGGAVPRKPVSEMPMERDRGAAHSLEPGKENLPGDPTSNATSRGAEGPLPPPS
binding result [8]: binds
binding result [7]: binds

The remaining lines, values ahead:

IC50 [1]: 50 nM
Molecule: soluble Reelin protein (from UniProt Q60841 27-3461) (natural protein)

binding result [8]: binds
binding result [7]: binds
B4: Human EphrinB1-Fc ectodomain (Fc fusion)
chain: LAKNLEPVSWSSLNPKFLSGKGLVIYPKIGDKLDIICPRAEAGRPYEYYKLYLVRPEQAAACSTVLDPNVLVTCNRPEQEIRFTIKFQEFSPNYMGLEFKKHHDYYITSTSNGSLEGLENREGGVCRTRTMKIIMKVGQDPNAVTPEQLTTSRPSKEADNTVKMATQAPGSRGSLGDSDGKHETVNQEEKSGPGASGGSSGDPDGFFNS
